The target in test [1] is T1, soluble human RANKL protein (human, UniProt O14788 140-317, limits assumed, biotinylated with NHS-biotin at a 20:1 molar ratio of NHS-biotin to protein (competition ELISA only)).
T1 sequence (looked up): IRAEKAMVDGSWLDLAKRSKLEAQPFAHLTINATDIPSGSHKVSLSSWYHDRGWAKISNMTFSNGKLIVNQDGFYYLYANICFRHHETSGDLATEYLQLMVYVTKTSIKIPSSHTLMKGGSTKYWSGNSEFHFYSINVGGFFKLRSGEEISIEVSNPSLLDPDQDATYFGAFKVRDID
Kind of test: cell-based or functional assay.

The target in test [2] is T1, soluble human RANKL protein. Kind of test: not described with the number; paragraph 33 defines high affinity as determined by optical biosensor analysis.
The target is the same in test [3]. Nature of the test: competition ELISA: biotinylated shRANKL (0.43 nM) binding to coated RANK-Fc, competitor in solution. From the text: A. A competition ELISA was established using a human RANK-Fc fusion protein coated on plastic and a biotinylated soluble human RANKL protein for detection in solution. The RANK-Fc and RANKL proteins were produced in CHO cells and Pichia pastoris, respectively, and purified to >90% homogeneity. The shRANKL (soluble, human RANKL) protein was biotinylated at a 20:1 molar ratio of NHS-biotin to protein (Pierce, Rockford, Ill.) according to the manufacturer's specifications. 96-well ELISA plates were coated overnight at 4° C. with 50 ng/well […] RANK-Fc in pH 9.6 carbonate-bicarbonate buffer. Plates were washed in pH 7.4 Tris-Saline buffer containing 0.1% Tween 20 and blocked for 2 h at RT in 1% BSA/PBS. Competitor proteins (RANK-Fc; death receptor 5 (DR5)-Fc; OPG-Fc; RANKL mAb 2A4) were diluted in 0.01% Tween 20/PBS and added to wells prior to the addition of biotinylated shRANKL (0.43 nM) and the combined samples were incubated for 2 hrs at room temperature. The amount of biotinylated shRANKL bound to coated RANK-Fc (±competitor) was measured using alkaline phosphatase conjugated streptavidin. The substrate for signal detection was 105 PNPP (Pierce Inc., Rockford, Ill.) and absorbance measured at 405 nm using a Spectra Max 340 plate reader.
(ELISA stands for enzyme-linked immunosorbent assay.)

A further test addresses T2, murine RANK-L (murine, UniProt O35235 158-316, limits assumed).
T2 sequence (looked up): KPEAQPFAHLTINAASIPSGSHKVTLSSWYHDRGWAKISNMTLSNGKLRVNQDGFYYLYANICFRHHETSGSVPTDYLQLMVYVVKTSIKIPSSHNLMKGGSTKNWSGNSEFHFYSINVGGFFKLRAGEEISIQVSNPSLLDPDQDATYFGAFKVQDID
Nature of the test: not described.

B1: mouse monoclonal antibody 2A4 (antibody, mouse IgG2a, V domains shown)
VH: EVQLVESGGDLVKPGGSLKLSCAASGFTFSRYGMSWVRQTPDKRLEWVATISSGGSYIYYPDSVKGRFTISRDNAKNTLYLQMSSLKSEDTAMYYCARLDGYNYRWYFDVWGTGTTVTVSS
VL: DIVMTQSHKFMSTSVGDRVSITCKASQDVSTAVAWYQQKPGQSPKLLIYSASYRYTGVPDRFTGSGSGTDFTFTISSVQAEDLAVYYCQQHYSSPRTFGGGTNLEIK
notes: the latter are followed; also called mAb 2A4; 2A4 Mab
Broadly, the Kd is the constant that tells how readily two partners part at equilibrium. A word on the IC50: it is the midpoint of a concentration-inhibition curve. For the molecule B1, the “IC50, formation of multinuclear cells, human monocyte osteoclastogenesis with 50 ng/ml human soluble RANKL plus M-CSF” value in test [1] was approximately 4 µg/mL. Also, the Kd in test [2] is approximately 0.1 nM. Also, in test [3], the IC50 was approximately 2 nM. In addition, the binding result with murine RANK-L is recorded as “no binding”.

B2: OPG-Fc (Fc fusion, UniProt O00300 22-194, looked up)
chain: ETFPPKYLHYDEETSHQLLCDKCPPGTYLKQHCTAKWKTVCAPCPDHYYTDSWHTSDECLYCSPVCKELQYVKQECNRTHNRVCECKEGRYLEIEFCLKHRSCPPGFGVVQAGTPERNTVCKRCPDGFFSNETSSKAPCRKHTNCSVFGLLLTQKGNATHDNICSGNSESTQK
notes: Construct not described; also called osteoprotegerin-Fc; not shown: Fc part; not described
B2: the IC50 in test [3] was approximately 0.5 nM.

B3: human RANK-Fc fusion protein (Fc fusion, UniProt Q9Y6Q6 30-212, looked up)
chain: IAPPCTSEKHYEHLGRCCNKCEPGKYMSSKCTTTSDSVCLPCGPDEYLDSWNEEDKCLLHKVCDTGKALVAVVAGNSTTPRRCACTAGYHWSQDCECCRRNTECAPGLGAQHPLQLNKDTVCKPCLAGYFSDAFSSTDKCRPWTNCTFLGKRVEHHGTEKSDAVCSSSLPARKPPNEPHVYLP
notes: Produced in CHO cells; not shown: Fc part
As for B3, the “IC50, formation of multinuclear cells, human monocyte osteoclastogenesis with 50 ng/ml human soluble RANKL plus M-CSF” value in test [1] is approximately 0.5 µg/mL. Further, in test [3], the IC50 was approximately 6 nM.

(Values after US20030215450A1 (published 2003).)
